{"source": "patent US20090202619A1", "about": "“POLYOXYALKYLENE CHAIN-CONTAINING LIPID DERIVATIVE AND LIPID FILM STRUCTURE CONTAINING SUCH DERIVATIVE” (THE UNIVERSITY OF TOKUSHIMA, priority 2005, published 2009)", "set-up": "species or system male ddY mouse", "conditions": "mouse, in vivo, iv", "from_the_text": "Using the methylpolyoxyethylenecarbamyl-glycyl-glycyl-glycyl-distearoylphosphadylethanolamine (DSPE-GGG-PEG2000) obtained in Example 5 or the methylpolyoxyethylenecarbamyl-distearoylphosphadylethanolamine (DSPE-PEG2000), egg yolk phosphatidylcholine (EPC) or hydrogenated egg yolk phosphatidylcholine (HEPC), and cholesterol, a composition in the blending ratios shown in Table 2 below was weighed in an egg plant flask, and the liposome solutions of Example 9 and Comparative Examples 4 to 5 were obtained by the same method as (1) above but using doxorubicin in place of the fluorescent dye. To monitor the blood kinetics of the liposome per se, 40 μCi/μmol ^3H-cholesterylhexadecyl ether (^3H-CHE) was added. […]\nNext, each liposome was administered to a male ddY mouse from the tail vein (25 mg lipid/kg), blood was collected 2 minutes, 30 minutes, 1 hour, 2 hours, 4 hours, 8 hours, and 24 hours after the administration, the radioactivity in blood was measured to determine the concentration of the liposome per se, and doxorubicin was measured by the fluorescence method to determine the doxorubicin concentration at that time point. Because the doxorubicin that has leaked from the liposome is quickly distributed in various tissues, doxorubicin concentrations determined by this method are considered to reflect the amount of doxorubicin retained in the liposome."}
{"substance": "methylpolyoxyethylenecarbamyl-glycyl-glycyl-glycyl-distearoylphosphadylethanolamine [Example 4]", "values": [{"measurement": "cleavage of the lipid derivative in blood", "value": "minimally cleaved in blood"}, {"measurement": "influence on the drug-releasing characteristics of liposome", "value": "did not influence the drug-releasing characteristics of liposome"}]}
